The target of experiment [1] is human OX40 (human) (UniProt P43489). Nature of the experiment: cell-based or functional assay.
For experiment [2] the target is unchanged. Nature of the experiment: flow cytometry, traditional IgG1 bivalent mAb on hOX40-Jurkat-NF-κB cells, APC anti-human IgG Fc detection. Background: A flow cytometer gives signals particle by particle.
Experiment [3] deals with cynomolgus monkey OX40 (cynomolgus monkey). The experiment can be described thus: flow cytometry on cOX40-Jurkat-NF-κB cells.

Chain of human OX40 (human) (P43489 29-277): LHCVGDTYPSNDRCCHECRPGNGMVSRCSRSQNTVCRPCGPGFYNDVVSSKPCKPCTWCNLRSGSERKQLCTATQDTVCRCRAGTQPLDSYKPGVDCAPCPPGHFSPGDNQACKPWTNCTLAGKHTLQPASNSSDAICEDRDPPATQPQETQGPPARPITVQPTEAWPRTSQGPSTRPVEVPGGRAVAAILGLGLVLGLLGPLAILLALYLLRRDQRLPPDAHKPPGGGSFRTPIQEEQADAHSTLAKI

B1: hG1-20E5 (antibody, from another filing, V domains shown)
VH: EVQLQQSGPELVKPGASVKMSCKASGYTFTSYVMHWVKQKPGQGLEWIGYINPYNDGTKYNEKFKGKATLTSDKSSSTAYMELSSLTSEDSAVYYCANYYGSSLSMDYWGQGTSVTVSS
VL: DIQMTQTTSSLSASLGDRVTISCRASQDISNYLNWYQQKPDGTVKLLIYYTSRLHSGVPSRFSGSGSGTDYSLTISNLEQEDIATYFCQQGNTLPWTFGGGTKLEIKR
For orientation: EC50 means the concentration giving half of the maximal effect. Take B1: in the experiment with human OX40 (human) [1], the percentage of GFP positive hOX40/hIL-12R/Jurkat-NF-κB reporter cells in the presence of A20-hFcγRI cells, EC50 worked out at 0.13 nM. For the same molecule, the EC50 with human OX40 (human) [2] worked out at 10.2 nM. In experiment [3], the fold difference of EC50 against hOX40-Jurkat-NF-κB cells was below 2 fold.

The record behind these values is patent US20250236653A1.
